Source: patent US20220363763A1 (ABL BIO, published 2022)

T1: recombinant his-tag human LAG3-ECD protein (human, UniProt P18627 23-450)
T1 construct: extracellular domain; not shown: his tag
T1 sequence (looked up): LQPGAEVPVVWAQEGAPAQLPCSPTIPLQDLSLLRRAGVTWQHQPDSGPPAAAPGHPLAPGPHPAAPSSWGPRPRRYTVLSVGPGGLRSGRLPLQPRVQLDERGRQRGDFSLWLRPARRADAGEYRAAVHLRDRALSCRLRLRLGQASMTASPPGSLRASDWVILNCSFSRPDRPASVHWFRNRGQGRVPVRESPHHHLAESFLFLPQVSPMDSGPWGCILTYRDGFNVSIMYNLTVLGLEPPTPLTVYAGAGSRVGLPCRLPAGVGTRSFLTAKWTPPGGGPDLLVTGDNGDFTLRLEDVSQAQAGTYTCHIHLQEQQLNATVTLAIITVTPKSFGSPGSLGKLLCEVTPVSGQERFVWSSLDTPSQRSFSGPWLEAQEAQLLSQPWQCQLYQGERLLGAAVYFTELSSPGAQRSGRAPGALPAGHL

T2: human LAG3 (construct not stated) (human, UniProt P18627 23-450, limits assumed)
T2 construct: also called human LAG3 protein; antigen
T2 sequence (looked up): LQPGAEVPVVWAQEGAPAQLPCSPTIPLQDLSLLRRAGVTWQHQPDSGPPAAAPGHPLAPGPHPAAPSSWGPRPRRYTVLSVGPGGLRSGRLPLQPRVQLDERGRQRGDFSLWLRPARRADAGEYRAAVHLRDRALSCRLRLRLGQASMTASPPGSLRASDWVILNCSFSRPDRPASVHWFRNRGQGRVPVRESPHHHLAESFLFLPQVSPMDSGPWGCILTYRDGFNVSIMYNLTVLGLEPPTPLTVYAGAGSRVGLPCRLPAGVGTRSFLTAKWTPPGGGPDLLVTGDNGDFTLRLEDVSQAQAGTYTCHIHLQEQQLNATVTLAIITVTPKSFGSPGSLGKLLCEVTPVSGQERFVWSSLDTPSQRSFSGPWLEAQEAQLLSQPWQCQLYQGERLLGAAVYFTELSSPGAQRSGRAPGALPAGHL

T3: human LAG3 on cells (human, UniProt P18627 23-525)
T3 construct: whole, on cells; also called Jurkat-LAG3
T3 sequence (looked up): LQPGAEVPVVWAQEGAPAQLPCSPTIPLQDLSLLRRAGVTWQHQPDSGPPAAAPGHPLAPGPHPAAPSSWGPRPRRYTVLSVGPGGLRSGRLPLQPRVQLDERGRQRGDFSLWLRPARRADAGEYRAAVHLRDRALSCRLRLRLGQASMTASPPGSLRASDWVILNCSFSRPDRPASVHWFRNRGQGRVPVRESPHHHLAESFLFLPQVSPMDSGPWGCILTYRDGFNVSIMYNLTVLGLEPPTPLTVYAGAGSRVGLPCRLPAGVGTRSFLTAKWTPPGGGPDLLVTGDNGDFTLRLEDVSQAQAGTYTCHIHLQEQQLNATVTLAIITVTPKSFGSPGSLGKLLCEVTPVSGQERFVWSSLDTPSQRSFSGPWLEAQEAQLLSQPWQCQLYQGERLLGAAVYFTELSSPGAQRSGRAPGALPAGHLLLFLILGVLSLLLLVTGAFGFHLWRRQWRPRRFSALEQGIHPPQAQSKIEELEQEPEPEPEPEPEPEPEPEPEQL

T4: Bio-LAG3 (human, UniProt P18627 23-450, limits assumed, biotinylated (sites not given))
T4 construct: also called human LAG3 protein
T4 sequence (looked up): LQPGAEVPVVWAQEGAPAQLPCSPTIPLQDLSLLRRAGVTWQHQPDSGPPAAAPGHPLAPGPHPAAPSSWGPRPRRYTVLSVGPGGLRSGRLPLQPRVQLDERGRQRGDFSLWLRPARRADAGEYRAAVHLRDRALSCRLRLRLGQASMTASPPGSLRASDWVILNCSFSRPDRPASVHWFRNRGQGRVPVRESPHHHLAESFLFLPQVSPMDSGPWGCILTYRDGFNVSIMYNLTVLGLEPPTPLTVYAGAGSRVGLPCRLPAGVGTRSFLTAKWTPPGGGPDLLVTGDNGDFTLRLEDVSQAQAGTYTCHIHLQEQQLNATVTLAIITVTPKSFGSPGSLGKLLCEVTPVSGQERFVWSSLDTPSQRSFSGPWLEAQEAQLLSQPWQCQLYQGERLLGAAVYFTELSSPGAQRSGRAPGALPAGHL

T5: biotin-labeled LAG3-ECD (Homo sapiens (Human), UniProt P18627 23-450, biotin label, site not stated)
T5 construct: also called soluble LAG-3; LAG3 protein
T5 sequence: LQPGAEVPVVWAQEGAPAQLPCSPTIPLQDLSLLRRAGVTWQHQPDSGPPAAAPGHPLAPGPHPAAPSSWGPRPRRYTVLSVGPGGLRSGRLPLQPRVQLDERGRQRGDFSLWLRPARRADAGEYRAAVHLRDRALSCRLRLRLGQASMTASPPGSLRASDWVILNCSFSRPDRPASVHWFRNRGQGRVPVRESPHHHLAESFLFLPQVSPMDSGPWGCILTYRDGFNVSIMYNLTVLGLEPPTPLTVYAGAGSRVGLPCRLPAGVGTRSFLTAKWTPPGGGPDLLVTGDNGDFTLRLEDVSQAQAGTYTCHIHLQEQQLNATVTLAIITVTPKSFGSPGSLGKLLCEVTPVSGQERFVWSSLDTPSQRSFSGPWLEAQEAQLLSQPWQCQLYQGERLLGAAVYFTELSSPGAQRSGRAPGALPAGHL

T6: human LAG3-His protein (Sinobio, 16498-H08H) (human, UniProt P18627 23-450)
T6 construct: also called human LAG3 protein; not shown: His tag
T6 sequence (looked up): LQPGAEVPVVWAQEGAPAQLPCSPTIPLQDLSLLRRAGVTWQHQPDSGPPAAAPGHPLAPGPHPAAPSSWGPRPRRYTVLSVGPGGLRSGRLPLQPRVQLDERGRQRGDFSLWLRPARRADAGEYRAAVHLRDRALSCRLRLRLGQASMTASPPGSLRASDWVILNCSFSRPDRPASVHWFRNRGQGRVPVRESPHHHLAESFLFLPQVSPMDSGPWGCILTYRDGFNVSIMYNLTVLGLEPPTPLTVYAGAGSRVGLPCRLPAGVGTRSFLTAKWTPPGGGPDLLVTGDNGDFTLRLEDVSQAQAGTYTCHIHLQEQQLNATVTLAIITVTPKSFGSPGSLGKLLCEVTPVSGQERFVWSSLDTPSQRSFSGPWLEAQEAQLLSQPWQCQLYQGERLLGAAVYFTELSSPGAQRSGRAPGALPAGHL

B1: 147H 3807 (antibody, V domains shown)
VH: EVQLVQSGAEVKKPGASVKVSCKASGYTFTNYWLGWIKQAPGQGLEWIGDIYPGGDYIVYNEKFKGKATLTADTSISTAYMELSRLRSDDTAVYYCARPNLPKDHWGQGTTVTVSS
VL: DIVMTQSPLSLPVTPGEPASISCRSSKSLLHSQGITYLYWYLQKPGQSPQLLIYQVSNLASGVPDRFSGSGSGTDFTLKISRVEAEDVGVYYCAQYLELPWTFGGGTKVEIK
notes: also called B3807
B2: H12x147 (bispecific antibody, human IgG1, kappa, N297A)
heavy: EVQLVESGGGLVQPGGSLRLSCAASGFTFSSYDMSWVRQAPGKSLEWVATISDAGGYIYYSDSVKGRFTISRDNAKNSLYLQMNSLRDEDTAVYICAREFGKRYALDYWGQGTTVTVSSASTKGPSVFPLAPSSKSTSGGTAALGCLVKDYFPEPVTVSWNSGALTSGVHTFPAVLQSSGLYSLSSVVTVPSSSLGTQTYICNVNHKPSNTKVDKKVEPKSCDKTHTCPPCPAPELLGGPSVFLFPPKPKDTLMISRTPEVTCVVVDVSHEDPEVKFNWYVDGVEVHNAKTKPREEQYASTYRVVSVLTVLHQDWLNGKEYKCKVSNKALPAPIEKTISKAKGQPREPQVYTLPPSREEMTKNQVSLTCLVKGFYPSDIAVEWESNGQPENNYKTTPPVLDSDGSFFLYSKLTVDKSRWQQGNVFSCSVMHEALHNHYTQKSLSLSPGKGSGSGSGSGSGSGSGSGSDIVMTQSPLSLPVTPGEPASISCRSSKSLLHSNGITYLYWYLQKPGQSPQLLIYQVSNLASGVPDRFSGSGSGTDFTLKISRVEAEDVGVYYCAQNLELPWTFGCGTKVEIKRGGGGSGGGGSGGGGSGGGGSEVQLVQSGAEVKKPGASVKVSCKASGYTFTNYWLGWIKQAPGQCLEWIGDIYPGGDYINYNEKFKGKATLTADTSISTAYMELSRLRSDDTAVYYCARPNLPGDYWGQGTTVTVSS
light: DIQMTQSPSSLSASVGDRVTITCKASQDVTPAVAWYQQKPGKAPKLLIYSTSSRYTGVPSRFSGSGSGTDFTFTISSLQPEDIATYYCQQHYTTPLTFGQGTKLEIKRTVAAPSVFIFPPSDEQLKSGTASVVCLLNNFYPREAKVQWKVDNALQSGNSQESVTEQDSKDSTYSLSSTLTLSKADYEKHKVYACEVTHQGLSSPVTKSFNRGEC
notes: also called L1A3

Key:
[1] = biological target: T1, recombinant his-tag human LAG3-ECD …; assay: Biacore, antibody captured, His-tag human LAG3-ECD injected (procedure of Example 2.16(B))
Procedure: (§1) The binding of B3807 to recombinant His-tag human LAG3-ECD protein was examined by Biacore T200 using a capture method. B3807 was captured using protein A which was immobilized on CM5 sensor chip. Serial concentrations of his-tag human LAG3-ECD protein (0-12 nM) were injected over capture antibodies at the flow rate of 30 μl/min. The dissociation phase was 900 s or 550 s.
(§2) B3807 was used in the following examples for further testing and preparing bispecific antibodies.

[2] = biological target: T2, human LAG3 (construct not stated); assay: TR-FRET LAG3 / MHC II binding assay (Cisbio), competitor MHC II
Procedure: To measure the ability of B3807 to block the interaction between human LAG3 and MHCII, the LAG3 and MHC II binding assay (Cisbio, 64ICP03PEG) was performed utilizing homogeneous TR-FRET technology, following the protocol provided by the kit manufacturer. B3807 was 3-fold diluted ranging from 100 nM to 5 pM (10 points). Fluorescence data was acquired on a PerkinElmer Envision plate reader and a four-parameter dose-response curve was fitted to obtain IC50 of each antibody.

[3] = biological target: T1, recombinant his-tag human LAG3-ECD …; assay: Biacore, antibody captured, His-tag human LAG3-ECD injected (procedure of Example 2.16(B)); column kd(1/s)
Procedure: as §1, §2

[4] = biological target: T1, recombinant his-tag human LAG3-ECD …; assay: Biacore, antibody captured, His-tag human LAG3-ECD injected (procedure of Example 2.16(B)); column ka (1/Ms)
Procedure: as §1, §2

human LAG3 on cells [5] = biological target: T3, human LAG3 on cells; assay: flow cytometry (MFI) on human LAG3-expressing Jurkat cells, upper panel
Procedure: (§3) To further confirm that B3807 could bind to cell-derived human LAG3, both inducible human LAG3 expressed Jurkat cells and activated PBMCs were used to test the binding capability of B3807. In brief, Jurkat cells were resuspended in FACS buffer. B3807, 25F7 and isotype control were 3-fold serially diluted in FACS buffer with a dose ranging from 20 nM to 9 pM. The serially diluted antibodies were added to the cell suspension and incubated for 30 minutes on ice. Then after removal of unbound antibodies, cells were stained with anti-human IgG conjugated with Alexa Fluor 633 (Thermo, A21091). Fluorescence measurement was acquired on FACSCelesta flow cytometer and analyzed in Flowjo to determine the mean fluorescence intensities (MFI). To test the antibodies' ability of binding to native human LAG3, PBMCs from health donor were stimulated with anti-CD3 (BD, 555336) and anti-CD28 (BD, 555725) both at a concentration of 1 μg/ml. Following 3 days' stimulation, cells were harvested and incubated with anti-LAG3 antibodies for 30 mins on ice. The cells were stained with anti-human CD4 and anti-human IgG. Analysis of antibodies binding to CD4+ cells were carried out on FACSCelesta flow cytometry.

[6] = biological target: T1, recombinant his-tag human LAG3-ECD …; assay: Biacore T200, B3807 captured on protein A, His-tag human LAG3-ECD injected; column 'KD', unit inferred
Procedure: as §1

Bio-LAG3 = biological target: T4, Bio-LAG3; assay: ELISA, Bio-LAG3 held on streptavidin-coated plate
Procedure: The streptavidin was coated to an ELISA plate at 2 μg/ml with 100 μl/well. 100 μl of Bio-LAG3 at 1.0 μg/ml was subsequently incubated with streptavidin at RT for 1 hr. B3807, along with a positive control 25F7 and a negative control IgG, were serially diluted with ELISA diluent buffer. To assess binding, the antibodies at various concentrations were added to LAG3 protein-coated plate for 1.5 hr RT. The resulting plates were washed and then labeled with anti-human IgG(Fab)-HRP antibody.

human LAG3 on cells [7] = biological target: T3, human LAG3 on cells; assay: flow cytometry (MFI) on activated human PBMC (CD4+ cells), lower panel
Procedure: as §3

biotin-labeled LAG3-ECD = biological target: T5, biotin-labeled LAG3-ECD; assay: ELISA on coated recombinant FGL-1; blocking of the binding of biotin-labeled LAG3-ECD to FGL-1
Procedure: Recombinant FGL-1 were coated on a 96 well plated at a concentration of 1 μg/ml and incubated overnight at 4° C. Serially diluted anti-LAG3 antibody B3807 (starting from 10 μg/ml and 1:3 dilution) and biotin-labeled LAG3-ECD (2 μg/ml) were incubated with FGL-1 coated wells at room temperature for 2 hours. After extensive washing with the wash buffer, streptavidin-HRP was added.

[8] = biological target: T6, human LAG3-His protein (Sinobio, …); assay: ELISA on coated LAG3-His
Source text: To evaluate the binding activity to PD-L1 and LAG3 of the bispecific antibodies (BsAb; H12x147 and 147xH12) prepared in Example 3, the BsAb were subjected to ELISA test.

human PD-L1-Fc protein = biological target: T7, human PD-L1-Fc protein (human, UniProt Q9NZQ7 19-239); assay: ELISA on coated PD-L1-Fc
T7 construct: Coated on ELISA plates; also called huPD-L1; not shown: Fc part
T7 sequence (Q9NZQ7 19-239 limits assumed): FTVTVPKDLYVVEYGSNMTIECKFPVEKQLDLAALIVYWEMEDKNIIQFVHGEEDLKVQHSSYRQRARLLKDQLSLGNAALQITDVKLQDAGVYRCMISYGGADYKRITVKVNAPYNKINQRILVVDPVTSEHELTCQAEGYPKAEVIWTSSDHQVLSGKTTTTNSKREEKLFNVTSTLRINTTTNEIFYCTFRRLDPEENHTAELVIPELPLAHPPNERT

Binder	Kd [1] [pM]	IC50 [2] [pM]	koff [3] [s⁻¹]	kon [4] [M⁻¹ s⁻¹]	EC50 (human LAG3 on cells [5]) [pM]	Kd [6] [pM]	EC50 (Bio-LAG3) [pM]	EC50 (human LAG3 on cells [7]) [pM]	IC50 (read off the curve) (biotin-labeled LAG3-ECD) [µg/mL]	binding result [8]	binding result (human PD-L1-Fc protein)
B1	915	410	0.00517	5.66e+06	60	464	60	320	~0.2		
B2										binds	binds
